Laboratory results as given in patent KR20230066722A (dated 2023).

Target: S275F RSV F protein (Synagis-resistant RSV antigen) (respiratory syncytial virus, UniProt P03420 26-524)
Assay: ratio of the ELISA Kd values, reference 11L

B1: RSV Protein-1A12 Ab (antibody, V domains shown)
VH: EVQLVESGGGLVQPGGSLRLSCAASGFTFTSSWMSWVRQAPGKGLEWVSEIDGYNGSTYYADSVKGRFTISRDNSKNTLYLQMNSLRAEDTAVYYCARTVPWWGMDYWGQGTLVTVSS
VL: DIQMTQSPSSLSASVGDRVTITCRASQNISNYLAWYQQKPGKAPKLLIYLASSLESGVPSRFSGSGSGTDFTLTISSLQPEDFATYYCQQANSPPRTFGQGTKVEIK
notes: The ELISA detected the antibody with anti-human IgG Fc-HRP, so a human Fc is implied; also called 항체 1A12; 1A12 항체
  fold higher affinity for S275F than for 11L: ~15 배 (fold)
